Assay results: article doi:10.1101/2023.05.17.541096 (bioRxiv, 2023)

Biological target: T1, human FIGNL1ΔN (FIGNL1 without the N-terminal 284 aa) (human, UniProt Q6PIW4 285-674)
T1 sequence: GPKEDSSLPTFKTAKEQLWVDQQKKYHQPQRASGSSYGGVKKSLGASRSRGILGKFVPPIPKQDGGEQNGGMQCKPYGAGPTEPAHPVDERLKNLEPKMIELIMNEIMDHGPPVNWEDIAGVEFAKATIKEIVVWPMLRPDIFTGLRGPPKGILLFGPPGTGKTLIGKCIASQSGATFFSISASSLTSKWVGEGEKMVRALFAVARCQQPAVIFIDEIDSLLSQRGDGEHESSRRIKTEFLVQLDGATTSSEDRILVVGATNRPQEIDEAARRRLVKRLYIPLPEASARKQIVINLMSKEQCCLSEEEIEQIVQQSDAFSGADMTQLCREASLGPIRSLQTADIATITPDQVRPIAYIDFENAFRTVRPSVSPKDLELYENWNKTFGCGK
Experiment: native gel or EMSA

- binding result: binds
B1: human RAD51 (natural protein)
chain: MAMQMQLEANADTSVEEESFGPQPISRLEQCGINANDVKKLEEAGFHTVEAVAYAPKKELINIKGISEAKADKILAEAAKLVPMGFTTATEFHQRRSEIIQITTGSKELDKLLQGGIETGSITEMFGEFRTGKTQICHTLAVTCQLPIDRGGGEGKAMYIDTEGTFRPERLLAVAERYGLSGSDVLDNVAYARAFNTDHQTQLLYQASAMMVESRYALLIVDSATALYRTDYSGRGELSARQMHLARFLRMLLRLADEFGVAVVITNQVVAQVDGAAMFAADPKKPIGGNIIAHASTTRLYLRKGRGETRICKIYDSPCLPEAEAMFAINADGVGDAKD
